From US20220089698A1 (published 2022)

Assays:
[1] = molecular target: HIV gp120 Bal (HIV); test: single-point ELISA; note: test concentration or dose not given here
[2] = molecular target: HIV gp120 CAAN (HIV); test: single-point ELISA; note: test concentration or dose not given here

B1: 1.24.1-1 (antibody, human IgG1, kappa)
heavy: QVQLLQSGAAVTKPGASVRVSCEASGYNIRDYFIHWWRQAPGQGLQWVGWINPKTGQPNNPRQFQGRVSLTRHASWDFDTFSFSMDLKALRSDDTAVYFCARQRSDYWDFDVWGSGTQVTVSSASTKGPSVFPLAPSSKSTSGGTAALGCLVKDYFPEPVTVSWNSGALTSGVHTFPAVLQSSGLYSLSSVVTVPSSSLGTQTYICNVNHKPSNTKVDKKVEPKSCDKTHTCPPCPAPELLAGPDVFLFPPKPKDTLMISRTPEVTCVVVDVSHEDPEVKFNWYVDGVEVHNAKTKPREEQYNSTYRVVSVLTVLHQDWLNGKEYKCKVSNKALPLPEEKTISKAKGQPREPQVYTLPPSREEMTKNQVSLTCLVKGFYPSDIAVEWESNGQPENNYKTTPPVLDSDGSFFLYSKLTVDKSRWQQGNVFSCSVLHEALHSHYTQKSLSLSPGK
light: DIQMTQSPSSLSASVGDTVTITCQANGYLNWYQQRRGKAPKLLIYDGSKLERGVPSRFSGRRWGQEYNLTINNLQPEDIATYFCQVYEFVVPGTRLDLKRTVAAPSVFIFPPSDEQLKSGTASVVCLLNNFYPREAKVQWKVDNALQSGNSQESVTEQDSKDSTYSLSSTLTLSKADYEKHKVYACEVTHQGLSSPVTKSFNRGEC
In the case of B1, the “ELISA (A450)” value [1] is reported as 0.98 A450 and the “ELISA (A450)” value [2] is reported as 0.9 A450.

B2: 1.29.1-1 (antibody, human IgG1, kappa)
heavy: QVQLLQSGAAVTKPGASVRVSCEASGYNIRDYFIHWWRQAPGQGLQWVGWINPKTGQPNNPRQFQGRVSLTRHASWDFDTFSFYMDLKALRSDDTAVYFCARQRSDYWDFDVWGQGTQVTVSSASTKGPSVFPLAPSSKSTSGGTAALGCLVKDYFPEPVTVSWNSGALTSGVHTFPAVLQSSGLYSLSSVVTVPSSSLGTQTYICNVNHKPSNTKVDKKVEPKSCDKTHTCPPCPAPELLAGPDVFLFPPKPKDTLMISRTPEVTCVVVDVSHEDPEVKFNWYVDGVEVHNAKTKPREEQYNSTYRVVSVLTVLHQDWLNGKEYKCKVSNKALPLPEEKTISKAKGQPREPQVYTLPPSREEMTKNQVSLTCLVKGFYPSDIAVEWESNGQPENNYKTTPPVLDSDGSFFLYSKLTVDKSRWQQGNVFSCSVLHEALHSHYTQKSLSLSPGK
light: DIQMTQSPSSLSASVGDTVTITCQANGYLNWYQQRRGKAPKLLIYDGSKLERGVPSRFSGRRWGQEYNLTINNLQPEDIATYFCQVYEFVVPGTRLDLKRTVAAPSVFIFPPSDEQLKSGTASVVCLLNNFYPREAKVQWKVDNALQSGNSQESVTEQDSKDSTYSLSSTLTLSKADYEKHKVYACEVTHQGLSSPVTKSFNRGEC
For B2, the “ELISA (A450)” value [1] was 1.03 A450 and the “ELISA (A450)” value [2] was 1.08 A450.

B3: 1.25.1-1 (antibody, human IgG1, kappa)
heavy: QVQLLQSGAAVTKPGASVRVSCEASGYNIRDYFIHWWRQAPGQGLQWVGWINPKTGQPNNPRQFQGRVSLTRHASWDFDTFSFYMDLSRLRSDDTAVYFCARQRSDYWDFDVWGSGTQVTVSSASTKGPSVFPLAPSSKSTSGGTAALGCLVKDYFPEPVTVSWNSGALTSGVHTFPAVLQSSGLYSLSSVVTVPSSSLGTQTYICNVNHKPSNTKVDKKVEPKSCDKTHTCPPCPAPELLAGPDVFLFPPKPKDTLMISRTPEVTCVVVDVSHEDPEVKFNWYVDGVEVHNAKTKPREEQYNSTYRVVSVLTVLHQDWLNGKEYKCKVSNKALPLPEEKTISKAKGQPREPQVYTLPPSREEMTKNQVSLTCLVKGFYPSDIAVEWESNGQPENNYKTTPPVLDSDGSFFLYSKLTVDKSRWQQGNVFSCSVLHEALHSHYTQKSLSLSPGK
light: DIQMTQSPSSLSASVGDTVTITCQANGYLNWYQQRRGKAPKLLIYDGSKLERGVPSRFSGRRWGQEYNLTINNLQPEDIATYFCQVYEFVVPGTRLDLKRTVAAPSVFIFPPSDEQLKSGTASVVCLLNNFYPREAKVQWKVDNALQSGNSQESVTEQDSKDSTYSLSSTLTLSKADYEKHKVYACEVTHQGLSSPVTKSFNRGEC
With B3 the “ELISA (A450)” value [1] was 1.07 A450 and the “ELISA (A450)” value [2] was 1.16 A450.

B4: 1.27.1-1 (antibody, human IgG1, kappa)
heavy: QVQLLQSGAAVTKPGASVRVSCEASGYNIRDYFIHWWRQAPGQGLQWVGWINPKTGQPNNPRQFQGRVSLTRHASWDFDTFSFYMDLKALRSDDTAVYFCARQRTDYWDFDVWGSGTQVTVSSASTKGPSVFPLAPSSKSTSGGTAALGCLVKDYFPEPVTVSWNSGALTSGVHTFPAVLQSSGLYSLSSVVTVPSSSLGTQTYICNVNHKPSNTKVDKKVEPKSCDKTHTCPPCPAPELLAGPDVFLFPPKPKDTLMISRTPEVTCVVVDVSHEDPEVKFNWYVDGVEVHNAKTKPREEQYNSTYRVVSVLTVLHQDWLNGKEYKCKVSNKALPLPEEKTISKAKGQPREPQVYTLPPSREEMTKNQVSLTCLVKGFYPSDIAVEWESNGQPENNYKTTPPVLDSDGSFFLYSKLTVDKSRWQQGNVFSCSVLHEALHSHYTQKSLSLSPGK
light: DIQMTQSPSSLSASVGDTVTITCQANGYLNWYQQRRGKAPKLLIYDGSKLERGVPSRFSGRRWGQEYNLTINNLQPEDIATYFCQVYEFVVPGTRLDLKRTVAAPSVFIFPPSDEQLKSGTASVVCLLNNFYPREAKVQWKVDNALQSGNSQESVTEQDSKDSTYSLSSTLTLSKADYEKHKVYACEVTHQGLSSPVTKSFNRGEC
For B4, the “ELISA (A450)” value [1] was 0.86 A450 and the “ELISA (A450)” value [2] was 0.86 A450.

B5: 1.28.1-1 (antibody, human IgG1, kappa)
heavy: QVQLLQSGAAVTKPGASVRVSCEASGYNIRDYFIHWWRQAPGQGLQWVGWINPKTGQPNNPRQFQGRVSLTRHASWDFDTFSFYMDLKALRSDDTATYFCARQRTDYWDFDVWGSGTQVTVSSASTKGPSVFPLAPSSKSTSGGTAALGCLVKDYFPEPVTVSWNSGALTSGVHTFPAVLQSSGLYSLSSVVTVPSSSLGTQTYICNVNHKPSNTKVDKKVEPKSCDKTHTCPPCPAPELLAGPDVFLFPPKPKDTLMISRTPEVTCVVVDVSHEDPEVKFNWYVDGVEVHNAKTKPREEQYNSTYRVVSVLTVLHQDWLNGKEYKCKVSNKALPLPEEKTISKAKGQPREPQVYTLPPSREEMTKNQVSLTCLVKGFYPSDIAVEWESNGQPENNYKTTPPVLDSDGSFFLYSKLTVDKSRWQQGNVFSCSVLHEALHSHYTQKSLSLSPGK
light: DIQMTQSPSSLSASVGDTVTITCQANGYLNWYQQRRGKAPKLLIYDGSKLERGVPSRFSGRRWGQEYNLTINNLQPEDIATYFCQVYEFVVPGTRLDLKRTVAAPSVFIFPPSDEQLKSGTASVVCLLNNFYPREAKVQWKVDNALQSGNSQESVTEQDSKDSTYSLSSTLTLSKADYEKHKVYACEVTHQGLSSPVTKSFNRGEC
With B5 the “ELISA (A450)” value [1] was 1.05 A450 and the “ELISA (A450)” value [2] was 0.99 A450.

B6: 1.26.1-1 (antibody, human IgG1, kappa)
heavy: QVQLLQSGAAVTKPGASVRVSCEASGYNIRDYFIHWWRQAPGQGLQWVGWINPKTGQPNNPRQFQGRVSLTRHASWDFDTFSFYMDLKALRSDDTATYFCARQRSDYWDFDVWGSGTQVTVSSASTKGPSVFPLAPSSKSTSGGTAALGCLVKDYFPEPVTVSWNSGALTSGVHTFPAVLQSSGLYSLSSVVTVPSSSLGTQTYICNVNHKPSNTKVDKKVEPKSCDKTHTCPPCPAPELLAGPDVFLFPPKPKDTLMISRTPEVTCVVVDVSHEDPEVKFNWYVDGVEVHNAKTKPREEQYNSTYRVVSVLTVLHQDWLNGKEYKCKVSNKALPLPEEKTISKAKGQPREPQVYTLPPSREEMTKNQVSLTCLVKGFYPSDIAVEWESNGQPENNYKTTPPVLDSDGSFFLYSKLTVDKSRWQQGNVFSCSVLHEALHSHYTQKSLSLSPGK
light: DIQMTQSPSSLSASVGDTVTITCQANGYLNWYQQRRGKAPKLLIYDGSKLERGVPSRFSGRRWGQEYNLTINNLQPEDIATYFCQVYEFVVPGTRLDLKRTVAAPSVFIFPPSDEQLKSGTASVVCLLNNFYPREAKVQWKVDNALQSGNSQESVTEQDSKDSTYSLSSTLTLSKADYEKHKVYACEVTHQGLSSPVTKSFNRGEC
B6 was tested, and the “ELISA (A450)” value [1] was 0.81 A450 and the “ELISA (A450)” value [2] was 1 A450.
